± gives the uncertainty stated by the source.
Assay: protein stability index of a GFP-peptide fusion (yeast GPS) (PSI 1-4); higher = more stable; sorted into four equal gates, so the index is relative within each strain
Outline: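 Tiled yeast protein peptides of 17 residues were each joined downstream of GFP, on plasmids that also express Cherry. The pooled library was maintained in yeast, and mid-log cultures in leucine-free medium were sorted into four equal gates on the GFP/Cherry ratio. Plasmids from every gate were amplified by PCR and sequenced on Illumina, with barcodes linking reads to strains. The protein stability index of a peptide is its gate-number-weighted read frequency summed over the gates.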

| Sequence | protein stability index (doa10∆) | protein stability index (pdr5∆) | protein stability index (san1∆) | protein stability index (ubr1∆) |
| --- | --- | --- | --- | --- |
| LAFAKLVHSEYLINGKR [SRP68] | 2.18 ± 0.11 | 2.5 ± 0.056 | 2.15 ± 0.082 | 2.53 ± 0.034 |
| KKEELVEIAYHKCDELI [RPO31] | 3.13 ± 0.25 | 2.96 ± 0.1 |  | 3.14 ± 0.093 |
| ARRLKNRAARDRRAQRV [RPL19A] | 2.97 ± 0.14 | 3.43 ± 0.1 | 2.57 ± 0.13 | 3.17 ± 0.062 |
| VYINPSGEKIDFLLSDW [BRR2] | 1.61 ± 0.1 | 2.49 ± 0.097 | 3.22 ± 0.12 | 2.38 ± 0.073 |
| GKQAIGAIAYNQFKRID [RET1] | 2.27 ± 0.2 |  |  | 2.28 ± 0.14 |
| RCGRRSFHVQKKTCSSC [RPL37A] | 2.3 ± 0.04 | 2.56 ± 0.061 | 2.47 ± 0.048 | 2.39 ± 0.038 |
| KDDMKVDDAIELALKTL [PRE9] | 2.76 ± 0.25 | 3.52 ± 0.1 | 3.18 ± 0.077 | 3.65 ± 0.09 |
| KVGAEMMMQQQLKNVQL [MED2] | 2.54 ± 0.11 | 2.6 ± 0.085 | 2.96 ± 0.07 | 2.66 ± 0.085 |
| VDIDDPDMMVDSFTMPN [SNF2] | 3.27 ± 0.11 | 2.86 ± 0.094 | 2.71 ± 0.085 | 3.15 ± 0.089 |
| IHNTKLPAYSGEIGDFF [POP1] | 3.07 ± 0.06 | 3.1 ± 0.062 | 3.1 ± 0.047 | 3.02 ± 0.06 |
| NVLFLRLFNNVKIHSQE [SRP72] | 2.18 ± 0.049 | 2.06 ± 0.04 | 1.66 ± 0.061 | 2.08 ± 0.036 |
| LRLPFSAAMSIDKLSDV [PRP8] | 2.43 ± 0.053 | 2.42 ± 0.038 | 2.24 ± 0.048 | 2.3 ± 0.033 |
| IYDSEDPQQVFDERIKF [RPN3] | 3.05 ± 0.11 | 3.09 ± 0.089 | 3.23 ± 0.08 | 2.89 ± 0.06 |
| EVTEEQAEATEWAEENA [RPS0A] | 3.48 ± 0.13 | 3.51 ± 0.1 | 2.99 ± 0.13 | 3.62 ± 0.095 |
| DYKGAKLNVVGWFHSHP [RRI1] | 2.81 ± 0.097 | 2.49 ± 0.1 | 2.38 ± 0.18 | 2.59 ± 0.061 |
| NKDSIEECGRTIHRSFT [CSN12] | 3.21 ± 0.067 | 3.13 ± 0.066 | 3.28 ± 0.043 | 3.12 ± 0.046 |
| ELFKDYKPGSITLENIT [MED1] | 2.53 ± 0.067 | 2.36 ± 0.053 | 1.96 ± 0.062 | 2.11 ± 0.042 |
| KHAEFDLSLLGYCDDIA [SIR2] | 3 ± 0.088 | 2.68 ± 0.066 | 2.99 ± 0.056 | 2.32 ± 0.063 |
| NAANVPVENIWADIFAK [RPP1A] | 2.2 ± 0.083 | 2.51 ± 0.11 | 2.48 ± 0.1 | 2.34 ± 0.081 |
| LMKKACYVGLLTAIPIL [SNU114] | 1.55 ± 0.035 | 1.45 ± 0.036 | 1.53 ± 0.054 | 1.66 ± 0.032 |
| LNQLDGFETSKNIKIIM [RPT6] | 2.39 ± 0.25 | 2.62 ± 0.22 | 2.74 ± 0.14 | 2.7 ± 0.18 |
| SSVTSDSMKYTISSLFV [RPC82] | 1.93 ± 0.046 | 2.3 ± 0.043 | 2.14 ± 0.06 | 2.16 ± 0.042 |
| QQLRRALPDVVVKGLPD [RPO31] | 2.19 ± 0.069 | 2.31 ± 0.057 | 1.93 ± 0.078 | 2.36 ± 0.083 |
| HSRILPKKALKVKAGVR [RRP43] | 1.73 ± 0.046 | 1.63 ± 0.054 | 1.57 ± 0.082 | 1.6 ± 0.032 |
| FDPFQAVSRSMTDIWNT [ECM29] | 2.81 ± 0.087 | 2.73 ± 0.07 | 2.85 ± 0.062 | 2.75 ± 0.071 |
| HKLDLAKRNLDANPSSQ [SMC2] | 1.86 ± 0.052 | 2.24 ± 0.065 | 1.67 ± 0.091 | 1.66 ± 0.035 |

| Sequence | protein stability index (doa10∆) | protein stability index (pdr5∆) | protein stability index (san1∆) | protein stability index (ubr1∆) |
| --- | --- | --- | --- | --- |
| ESRKAFFLGYMINRLLL [RPB2] | 1.17 ± 0.092 | 1.17 ± 0.11 | 1.12 ± 0.09 | 1.09 ± 0.072 |
| TGAASNQSSFNFGNNGA [YOR098C/NUP1] | 2.65 ± 0.11 | 2.79 ± 0.099 | 2.5 ± 0.096 | 2.93 ± 0.074 |
| RRISSMPGGYFHSEISP [YAR002W/NUP60] | 2.27 ± 0.14 | 1.89 ± 0.11 | 2.96 ± 0.094 | 3.17 ± 0.14 |
| MCEQALSALFTISSKPD [YCS4] | 2.22 ± 0.038 | 1.72 ± 0.04 | 1.87 ± 0.056 | 1.77 ± 0.032 |
| SEVLVDTLDSKSNGSSD [ISW2] | 3.07 ± 0.07 | 3.15 ± 0.066 | 3.11 ± 0.054 | 3.04 ± 0.058 |
| ENHNKGKLWKDVKARIA [QCR9] | 2.77 ± 0.14 | 3.07 ± 0.19 | 3 ± 0.13 | 2.83 ± 0.12 |
| INGINWRFHTPQKYVLH [SIN4] | 2 ± 0.057 | 1.92 ± 0.052 | 1.83 ± 0.097 | 1.97 ± 0.042 |
| RRKFDPSSSENVMTPRE [UBP6] |  | 1.99 ± 0.11 | 2.45 ± 0.22 | 2.96 ± 0.23 |
| ANLLQINVDNDPFFAQS [YML103C/NUP188] | 3.04 ± 0.059 | 3.14 ± 0.06 | 2.88 ± 0.055 | 2.93 ± 0.094 |
| GNTVVDGEGKVDSISLH [YCG1] | 3.54 ± 0.3 | 3.53 ± 0.23 |  |  |
| DRPGSKFHKREVVEAVT [RPL3] | 3.04 ± 0.15 | 1.96 ± 0.14 | 2.02 ± 0.19 | 2.41 ± 0.13 |
| DTSNWELSDSWRAHDSS [YGL100W/SEH1] | 3.29 ± 0.068 | 3.37 ± 0.058 | 3.4 ± 0.036 | 3.31 ± 0.037 |
| ILDKIFYGVLDQGNGWL [RPN6] | 3.31 ± 0.096 | 2.65 ± 0.069 | 2.45 ± 0.059 | 3.11 ± 0.061 |
| TNVLNFIKLQKIDIIEL [FAS1] | 2.35 ± 0.042 | 1.94 ± 0.043 | 1.91 ± 0.075 | 2.05 ± 0.044 |
| AVDHRRQNRNQEIFDAN [RPL13A] | 3.15 ± 0.075 | 3.21 ± 0.058 | 3.23 ± 0.044 | 3.34 ± 0.046 |
| NEWIKAQEDVPYLLPYI [QCR7] | 2.42 ± 0.095 | 2.46 ± 0.078 | 2.6 ± 0.077 | 2.5 ± 0.056 |
| QTQREKAPLQPNSERET [IRR1] | 3.1 ± 0.061 | 3.2 ± 0.059 | 3.06 ± 0.039 | 3.07 ± 0.054 |
| DVTHTLGMLDDNKMDSV [SMC4] | 3.15 ± 0.095 | 3.03 ± 0.082 | 3.21 ± 0.049 | 3.27 ± 0.097 |
| KLIEKKSAYANTEKDYK [SMC2] | 2.71 ± 0.057 | 2.59 ± 0.059 | 2.83 ± 0.053 | 2.88 ± 0.045 |
| EISPQDSIASVLSPDSN [GAL11] | 1.99 ± 0.064 | 2.34 ± 0.062 | 2.98 ± 0.087 | 2.64 ± 0.055 |
| AFAFCIPVYCFSHPAHQ [YCG1] | 1.64 ± 0.045 | 1.81 ± 0.044 | 1.76 ± 0.059 | 1.81 ± 0.045 |
| IEDVTPVPSDSTRKKGG [RPS14B] | 2.99 ± 0.039 | 3.15 ± 0.045 | 2.96 ± 0.051 | 3.03 ± 0.04 |
| SLLASKSTYRTPNFDDV [RIP1] | 2.78 ± 0.29 |  |  | 3.49 ± 0.17 |
| YPDFRHYGLAVDIYTHF [DIS3] | 2.17 ± 0.041 | 2.32 ± 0.041 | 1.9 ± 0.066 | 2.2 ± 0.031 |
| ITARSAFVEFGASVIAG [SWP82] | 1.93 ± 0.11 | 2.53 ± 0.085 | 1.86 ± 0.11 | 2.21 ± 0.054 |
| LQMYSKIRRHPNIMLIF [FAS1] | 1.72 ± 0.039 | 2.01 ± 0.042 | 1.97 ± 0.08 | 1.91 ± 0.034 |

— the supplement of paper PMC9732359
